B1: 44MPD (cγc membrane proximal domain, residues 282-325) (peptide)
chain: WLERTMPRIPTLKNLEDLVTEYHGNFSAWSGVSKGLAESLQPDY
notes: Two-hybrid constructs comprising intracellular fragments close to the membrane proximal domain
B2: cγc 329-369 (41 MDD polypeptide) (peptide)
chain: LCLVSEIPPKGGALGEGPGASPCNQHSPYWAPPCYTLKPET
notes: GAL4 fusion (bait or prey) in two-hybrid; also called 41 amino acid polypeptide from the membrane distal domain of cγc

Tests used:
[1] = target: T1, NF-κB-inducing kinase, NIK (MAP3K14), full length (human, UniProt Q99558 1-947); assay: yeast two-hybrid
T1 construct: range 1-947; also called full length NIK; endogenous NIK

[2] = target: T1, NF-κB-inducing kinase, NIK (MAP3K14), …; assay: yeast two-hybrid, NIK as bait, 41 MDD as prey
Description: (§1) To define the domain of cγc responsible for binding NIK, deletion mutants of cγc have been created and their binding to NIK analysed (FIG. 1). The deletion mutants were created by sequentially introduction of stop codons in the cytoplasmic domain of cγc, in gaps of 10-20 amino acids. The DNA encoding the full-length cγc or its deletion mutants were introduced into the pGADT7 prey vector (Clontech) for testing their binding to NIK in the SFY526 heterologous yeast strain by the two hybrid assay. The SFY526 yeast strain is […] for TRP and Leu. pGBKT plasmids (bait vector) have the Trp1 wild type gene and pGAD has the wild type Leu2 gene. Thus, only doubly transfected yeast will grow on selective Leu Trp media. Functional GAL4 will be restored in doubly transfected yeast when the chimeric proteins fused to GAL4 domains interact, bringing the activation domain and DNA binding domain of GAL4 to close proximity. The level of LAC-Z expression is indicative of the strength of the protein-protein interaction. Lac-Z activity was assessed by the standard beta-gal/colony lift filter assay (Clontech, Yeast Protocol Handbook, Chapter VI).
(§2) The binding of 41 MDD polypeptide to full length NIK or C-terminus NIK was tested in both orientations (i.e. 41 MDD as the pray and NIK as the bait and vice versa). […]

[3] = target: T2, NIK624-947 (C-terminal domain of NIK) (human, UniProt Q99558 624-947); assay: yeast two-hybrid, NIK624-947 as bait, 41 MDD as prey
T2 construct: GAL4 DNA-BD or AD fusion in the two-hybrid tests; expressed from pcdnNIK (co-IP) or pcS3MTdnNIK (reporter assay) in 293-T cells; also called C-terminus of NIK; NIK C-terminus
Description: as §1, §2

T1 sequence (Q99558 whole entry): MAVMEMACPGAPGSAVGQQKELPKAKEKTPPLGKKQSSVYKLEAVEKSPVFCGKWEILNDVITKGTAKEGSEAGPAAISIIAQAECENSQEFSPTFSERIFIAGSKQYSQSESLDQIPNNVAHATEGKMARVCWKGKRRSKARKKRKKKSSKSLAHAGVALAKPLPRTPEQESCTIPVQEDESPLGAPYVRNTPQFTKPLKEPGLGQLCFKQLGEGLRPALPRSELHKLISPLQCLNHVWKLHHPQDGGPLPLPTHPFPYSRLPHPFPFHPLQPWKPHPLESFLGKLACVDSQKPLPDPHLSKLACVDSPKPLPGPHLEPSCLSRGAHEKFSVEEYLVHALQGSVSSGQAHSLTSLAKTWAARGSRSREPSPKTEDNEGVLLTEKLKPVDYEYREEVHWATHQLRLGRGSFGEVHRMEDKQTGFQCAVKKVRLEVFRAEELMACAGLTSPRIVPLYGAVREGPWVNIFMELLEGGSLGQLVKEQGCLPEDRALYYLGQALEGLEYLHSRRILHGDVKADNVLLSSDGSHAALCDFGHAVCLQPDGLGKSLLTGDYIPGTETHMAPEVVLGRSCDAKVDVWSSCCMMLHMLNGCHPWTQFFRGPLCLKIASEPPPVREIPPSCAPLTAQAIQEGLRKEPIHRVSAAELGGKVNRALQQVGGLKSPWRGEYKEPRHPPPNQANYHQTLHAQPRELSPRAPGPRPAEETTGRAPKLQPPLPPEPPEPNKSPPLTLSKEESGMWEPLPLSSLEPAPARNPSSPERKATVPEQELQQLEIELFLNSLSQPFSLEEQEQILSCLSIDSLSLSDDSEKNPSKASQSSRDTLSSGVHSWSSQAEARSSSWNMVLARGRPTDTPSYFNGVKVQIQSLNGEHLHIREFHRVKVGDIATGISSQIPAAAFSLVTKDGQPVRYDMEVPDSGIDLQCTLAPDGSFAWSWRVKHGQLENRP
T2 sequence (Q99558 624-947 limits assumed): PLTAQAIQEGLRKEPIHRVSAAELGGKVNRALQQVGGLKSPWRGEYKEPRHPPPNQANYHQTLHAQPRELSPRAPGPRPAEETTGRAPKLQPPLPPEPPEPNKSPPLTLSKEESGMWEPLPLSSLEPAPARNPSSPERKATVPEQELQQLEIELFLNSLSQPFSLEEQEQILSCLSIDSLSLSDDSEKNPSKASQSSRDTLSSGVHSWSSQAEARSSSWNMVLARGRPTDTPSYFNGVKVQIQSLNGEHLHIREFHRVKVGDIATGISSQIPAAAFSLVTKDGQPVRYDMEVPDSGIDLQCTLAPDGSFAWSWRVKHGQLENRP

Binder	binding result [1]	binding result [2]	binding result [3]
B1	binds		
B2		binds	binds

— US20050272633A1 (YEDA RESEARCH AND DEVELOPMENT, published 2005)
